Experimental data as given in patent US20130115213A1.
pKd: −log10 of the molar value.

Assays:
[1] = molecular target: human CD3 (TCR/CD3 complex) on the cell surface (human) (UniProt P07766); test: cell surface retention on CD3+ Jurkat cells at 37 C; ln2/koff
[2] = molecular target: human CD3 (TCR/CD3 complex) on the cell surface (human) (UniProt P07766); test: cell surface retention on CD3+ Jurkat cells at 37 C, flow cytometry, one-phase exponential decay fit
[3] = molecular target: human CD3 (TCR/CD3 complex) on the cell surface (human) (UniProt P07766); test: cell-based or functional assay
[4] = molecular target: human CD3 (TCR/CD3 complex) on the cell surface (human) (UniProt P07766); test: cell surface retention on CD3+ Jurkat cells at 37 C; reference scFv10
[5] = molecular target: human CD3 (TCR/CD3 complex) on the cell surface (human) (UniProt P07766); test: flow cytometry on CD3+ Jurkat cells, Lineweaver-Burk fit

UniProt P07766, sequence (P07766 23-207, one chain of several): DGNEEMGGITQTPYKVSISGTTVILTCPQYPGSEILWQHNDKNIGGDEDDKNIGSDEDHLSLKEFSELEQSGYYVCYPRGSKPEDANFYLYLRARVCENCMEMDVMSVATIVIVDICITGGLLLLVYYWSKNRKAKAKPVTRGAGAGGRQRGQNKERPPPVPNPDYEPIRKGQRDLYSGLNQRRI

- t1/2 [1]: 2.59 min
- koff [2]: 0.00447 s⁻¹
- CD3 modulation (fraction of TCR/CD3 complexes on the surface of T cells that is lost after antibody treatment), PBMC, 24 h [3]: > 90%
- fold longer t1/2 against scFv10 [4]: 2.5 fold
- pKd [5]: 8.69
Substance: mAb OKT3 (Orthoclone OKT3, Cilag) (antibody)
